# Results as given in publication PMC3983792 (Nature, 2012).
# T1: meninΔ (human menin with the unstructured loop, residues 460–519, deleted) (human, UniProt O00255-2 1-610, residues 460–519 deleted)
# T1 sequence (looked up): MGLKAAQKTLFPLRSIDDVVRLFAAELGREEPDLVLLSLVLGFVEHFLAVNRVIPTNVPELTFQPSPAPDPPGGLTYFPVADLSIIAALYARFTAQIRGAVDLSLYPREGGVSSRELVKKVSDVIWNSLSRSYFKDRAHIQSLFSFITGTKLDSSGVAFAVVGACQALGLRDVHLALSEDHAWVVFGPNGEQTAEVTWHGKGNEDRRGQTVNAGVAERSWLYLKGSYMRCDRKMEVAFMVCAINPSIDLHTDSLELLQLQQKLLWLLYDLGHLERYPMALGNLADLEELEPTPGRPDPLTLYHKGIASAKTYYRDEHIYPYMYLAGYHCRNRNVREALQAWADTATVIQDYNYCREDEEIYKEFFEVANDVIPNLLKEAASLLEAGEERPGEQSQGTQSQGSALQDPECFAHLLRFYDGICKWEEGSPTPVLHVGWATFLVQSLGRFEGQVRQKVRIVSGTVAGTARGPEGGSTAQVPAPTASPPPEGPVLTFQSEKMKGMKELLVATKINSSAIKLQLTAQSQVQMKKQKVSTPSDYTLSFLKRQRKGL
# T2: full-length menin (human, UniProt O00255-2 1-610)
# T2 sequence (looked up): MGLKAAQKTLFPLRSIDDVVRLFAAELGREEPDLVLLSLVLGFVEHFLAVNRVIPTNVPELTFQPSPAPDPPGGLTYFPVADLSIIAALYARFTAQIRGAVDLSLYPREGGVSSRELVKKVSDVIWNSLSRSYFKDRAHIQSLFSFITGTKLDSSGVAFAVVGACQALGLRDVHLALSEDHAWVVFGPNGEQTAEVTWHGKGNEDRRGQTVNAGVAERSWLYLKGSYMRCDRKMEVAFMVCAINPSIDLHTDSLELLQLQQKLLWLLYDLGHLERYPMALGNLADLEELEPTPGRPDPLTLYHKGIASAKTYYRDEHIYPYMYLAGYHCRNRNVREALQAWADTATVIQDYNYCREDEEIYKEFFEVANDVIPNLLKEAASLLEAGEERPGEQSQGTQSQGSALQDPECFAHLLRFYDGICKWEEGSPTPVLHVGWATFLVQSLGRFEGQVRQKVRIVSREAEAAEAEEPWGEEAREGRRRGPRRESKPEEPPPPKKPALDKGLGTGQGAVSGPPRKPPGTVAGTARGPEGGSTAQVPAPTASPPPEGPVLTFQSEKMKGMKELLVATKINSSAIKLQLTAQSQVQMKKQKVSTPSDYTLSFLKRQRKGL
# B1: GST-fused JunD (residues 1–150) (domain or fragment, human, UniProt P17535 1-150, looked up)
# chain: METPFYGDEALSGLGGGASGSGGSFASPGRLFPGAPPTAAAGSMMKKDALTLSLSEQVAAALKPAAAPPPTPLRADGAPSAAPPDGLLASPDLGLLKLASPELERLIIQSNGLVTTTPTSSQFLYPKVAASEEQEFAEGFVKALEDLHKQ
# B2: MLL1_(MBM-LBM)Δ (MLL1 residues 6–153 with loops 16–22 and 36–102 deleted) (domain or fragment, human, UniProt Q03164 6-153, looked up)
# chain: RWRFPARPGTGRRGLGGAPRQRVPALLRVGPGFDAALQVSAAIGTNLRRFRAVFGESGGGGGSGEDEQFLGFGS
# Tests used:
# [1] = biological target: menin-MLL1_(MBM-LBM) complex (human) (UniProt O00255); experiment: ITC
# [2] = biological target: T1, meninΔ (human menin with the …); experiment: ITC
# full-length menin [3] = biological target: T2, full-length menin; experiment: ITC
# [4] = biological target: T1, meninΔ (human menin with the …); experiment: crystal structure
# full-length menin [5] = biological target: T2, full-length menin; experiment: pull-down
molecule,measurement,setting,value
LEDGFIBD (IBD domain of LEDGF) (domain or fragment),Kd,[1],470 nM
"ARGRFPGRPRGAGGGGGRGG (peptide, UniProt Q9UMN6 16-35, looked up) [MLL2MBM (MLL2 residues 16–35)]",Kd,[2],120 nM
"RWRFPARPGTTGGGGGGGRR (peptide, UniProt Q03164 6-25, looked up) [MLL1MBM (menin-binding motif, residues 6–25 of MLL1)]",Kd,[2],82 nM
same,binding result,full-length menin [3],binds
"RWRFPARPGTTGGGGGGGEE (peptide, UniProt Q03164 6-25, looked up) [MLL1MBM with 24RR25 substituted with two glutamates]",fold decrease in binding affinity against wild-type MLL1MBM,[2],21 fold
"SPGRLFPGAPPTAKK (peptide, UniProt P17535 27-47, looked up) [JunDMBMΔ (JunD residues 27–47 with residues 40–45 deleted)]",binding result,[4],binds
"SPGRLFPGAPPTAAAGSMMKK (peptide, UniProt P17535 27-47, looked up) [JunDMBM (JunD residues 27–47, menin-binding motif)]",binding result,[2],binds
B1,binding result,full-length menin [5],binds
B2,binding result,[4],binds
